For test [1], the target named is T1, death decoy receptor 1 (DcR1) (UniProt O14798 26-221, limits assumed).
T1 sequence (looked up): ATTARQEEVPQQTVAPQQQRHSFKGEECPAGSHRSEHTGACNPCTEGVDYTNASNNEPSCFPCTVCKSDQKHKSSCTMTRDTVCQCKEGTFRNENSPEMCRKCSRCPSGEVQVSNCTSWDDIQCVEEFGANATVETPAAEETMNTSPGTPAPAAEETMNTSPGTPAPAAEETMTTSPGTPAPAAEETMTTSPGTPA
Description: SPR (Biacore 2000): DcR1 immobilised on a CM5 chip, HW6 injected. Background: In SPR one partner is held on a chip, and binding of the other changes the refractive index at the surface.
Description: (§1) The binding affinity of the anti-DR5 scFv antibody to DR5, and the cross-reactivities of the antibody with other antigens, DcR1, DcR2, DR4, TNFR1, TNFR2 and CD95 were determined by Biacore 2000 SPR (surface plasmon resonance) biosensor (Pharmacia, Sweden), respectively.

The target in another test is T2, TNFR2 (UniProt P20333 23-257).
T2 sequence (looked up): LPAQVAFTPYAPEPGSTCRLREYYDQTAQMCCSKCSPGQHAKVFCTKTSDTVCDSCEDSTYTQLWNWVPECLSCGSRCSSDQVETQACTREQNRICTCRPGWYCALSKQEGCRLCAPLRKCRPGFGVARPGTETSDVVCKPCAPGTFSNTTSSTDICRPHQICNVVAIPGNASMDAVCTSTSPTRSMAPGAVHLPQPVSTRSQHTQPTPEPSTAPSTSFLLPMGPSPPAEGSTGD
Description: SPR (Biacore 2000), antigen immobilised on CM5 chip.

A further test concerns the target T3, DcR2 (UniProt Q9UBN6 56-211).
T3 construct: also called death decoy receptor 2
T3 sequence (looked up): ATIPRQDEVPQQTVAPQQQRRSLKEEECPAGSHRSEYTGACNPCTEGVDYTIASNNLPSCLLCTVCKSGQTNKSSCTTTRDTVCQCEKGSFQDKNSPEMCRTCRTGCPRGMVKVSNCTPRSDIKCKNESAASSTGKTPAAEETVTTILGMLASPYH
The description is as above.

In test [2] the target is T4, TNFR1 (UniProt P19438 30-211, limits assumed).
T4 sequence (looked up): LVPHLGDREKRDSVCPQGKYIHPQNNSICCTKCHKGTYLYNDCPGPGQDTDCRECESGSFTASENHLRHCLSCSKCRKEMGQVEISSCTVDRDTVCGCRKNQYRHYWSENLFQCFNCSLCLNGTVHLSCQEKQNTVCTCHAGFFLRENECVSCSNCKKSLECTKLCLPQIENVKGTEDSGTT
Put plainly: SPR (Biacore 2000): TNFR1 immobilised on a CM5 chip, HW6 injected.
Description: as §1

The target in test [3] is T5, death receptor 4 (DR4) (UniProt O00220 24-239, limits assumed).
T5 construct: also called TRAIL receptor 1
Put plainly: SPR (Biacore 2000): DR4 immobilised on a CM5 chip, HW6 injected.
Description: as §1

The target of test [4] is T6, CD95 (UniProt P25445 26-173).
T6 sequence (looked up): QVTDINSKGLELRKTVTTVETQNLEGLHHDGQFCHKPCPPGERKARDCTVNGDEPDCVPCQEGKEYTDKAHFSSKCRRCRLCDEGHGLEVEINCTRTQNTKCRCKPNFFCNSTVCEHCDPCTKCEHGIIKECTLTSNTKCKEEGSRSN
Description: SPR (Biacore 2000): CD95 immobilised on a CM5 chip, HW6 injected.
Description: as §1

Another test addresses T7, death receptor 5 (DR5) (UniProt O14763 52-182, limits assumed).
T7 construct: Purified antigen immobilised on CM5 chip or coated on ELISA plates; also called TRAIL receptor 2; TRICK2
Put plainly: SPR (Biacore 2000), DR5 immobilised on CM5 chip, scFv injected, 25° C.

The target in test [5] is T1, death decoy receptor 1 (DcR1). Description: SPR (Biacore 2000): DcR1 immobilised on a CM5 chip, HW1 injected.
Description: as §1
Test [6] concerns the target T4, TNFR1. Description: SPR (Biacore 2000): TNFR1 immobilised on a CM5 chip, HW1 injected.
Description: as §1
The target in test [7] is T5, death receptor 4 (DR4). Description: SPR (Biacore 2000), antigen immobilised on CM5 chip.
Description: as §1
The target in test [8] is T6, CD95. Put plainly: SPR (Biacore 2000): CD95 immobilised on a CM5 chip, HW1 injected.
Description: as §1

T7 sequence (O14763 52-182 limits assumed): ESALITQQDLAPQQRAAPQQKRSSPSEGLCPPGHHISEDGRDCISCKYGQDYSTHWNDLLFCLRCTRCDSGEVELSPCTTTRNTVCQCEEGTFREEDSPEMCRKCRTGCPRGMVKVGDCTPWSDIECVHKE
T5 sequence (O00220 24-239 limits assumed): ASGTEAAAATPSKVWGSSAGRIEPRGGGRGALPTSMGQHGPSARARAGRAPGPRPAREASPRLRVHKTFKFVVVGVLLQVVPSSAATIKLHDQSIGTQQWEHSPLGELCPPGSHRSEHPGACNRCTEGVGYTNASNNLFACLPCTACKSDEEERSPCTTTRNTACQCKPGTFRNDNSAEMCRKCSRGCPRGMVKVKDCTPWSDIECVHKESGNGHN
Description for DcR2: as §1
Description for TNFR2: as §1
Description for death receptor 5 (DR5): as §1

B1: HW6 anti-DR5 scFv antibody (scFv)
scFv: QVQLQQSGPGRVQPSQTLSLTCAISGDSVSNNNAAWYWIRQSPSRGLEWLGRTYYRSKWYNDYAVSVKSRITISPDTSKNQFSLQLNSVTPEDTAVYYCARRGDGNSYFDYWGQGTLVTVSSGILRWGRFGWRGLGRGWLEIVLTQSPGTLSLSPGERATLSCRASQSVSSGYVSWYRQKPGQAPRLLIYGASTRATGIPDRFSGSGSGTDFTLTISRLEPEDFAVYYCHQYGSSPNTYGQGTKVGIK
notes: Human scFv expressed in E. coli periplasm, purified, monomeric; not shown: C-terminal Flag tag from vector pKJ1; C-terminal 6xHis tag from vector pKJ1
On to B1, for which the binding result in [1] is reported as “no binding”; with TNFR2 it was “no binding (tested: up to 10 µM)”; with DcR2 it was “no binding (tested: up to 10 µM)”; in the test with TNFR1 [2], “no binding”; in the test with death receptor 4 (DR4) [3], “no binding”; in the test with CD95 [4] it was “no binding”. Moreover, the affinity in the test with death receptor 5 (DR5), expressed as Kd, was 0.0545 µM. Further, the koff (usually a measure of how fast the partners let go of each other) with death receptor 5 (DR5) was found to be 0.00688 s⁻¹. Further, the kon (usually the rate constant with which the complex forms) in the test with death receptor 5 (DR5) was found to be 126000 M⁻¹ s⁻¹.

B2: HW1 anti-DR5 scFv antibody (scFv)
scFv: QVQLQQSGPGLVKPSQTLSLTCAISGDSVSSTTVAWDWIRQSPSRGLEWLGRTYYRSKWYNEYAVSVKSRITINVDTSKNQISLQLNSVTPEDTAVYYCAREPDAGRGAFDIWGQGTTVTSPLRWGRFGWRGLGRGWLRSPVTQSPGTLSLSPGERATLSCRASQSVSSSHLAWYQQKPGQAPRLLIYGASSRATGIPDRFSGSGSGTDFTLTISSLEPEDFAVYYCQQRSNWPPRAVFGQGTRLEIK
notes: Human scFv expressed in E. coli periplasm (PelB signal removed on export), purified, monomeric; not shown: C-terminal Flag tag from vector pKJ1; C-terminal 6xHis tag from vector pKJ1
For the molecule B2, the binding result in test [5] is “no binding”; with TNFR1 [6] it was “no binding”; with death receptor 4 (DR4) [7] it was “no binding (tested: up to 10 µM)”; with TNFR2, “no binding (tested: up to 10 µM)”; with DcR2 it was “no binding (tested: up to 10 µM)”; with CD95 [8], “no binding”. Besides, the dissociation constant (Kd) (as a rule, the free concentration of one partner at which half of the binding sites on the other are occupied at equilibrium, for simple one-to-one binding) with death receptor 5 (DR5) amounted to 0.202 µM. In addition, the koff with death receptor 5 (DR5) is 0.00471 s⁻¹. Besides, in the test with death receptor 5 (DR5), the on-rate (kon) came out at 23300 M⁻¹ s⁻¹.

The record behind these values is patent publication US20090317396A1 (AJOU UNIVERSITY INDUSTRY ACADEMIC COOPERATION FOUNDATION, published 2009).
